The source of these data is patent US20230227520A1 (MAX PLANCK GESELLSCHAFT ZUR F RDERUNG DER WISSENSCHAFTEN E V, published 2023).

Experiment [1] concerns the target G-CSFR on NFS-60 cells (murine myeloblastic cell line) (mouse) (UniProt P40223). Nature of the experiment: cell-based or functional assay.
For experiment [2], the target named is T1, G-CSF Receptor (G-CSFR) (R&D systems 381-GR-050/CF), recombinant human (human, UniProt Q99062 25-627, limits assumed).
T1 construct: Bought protein, amine-coupled to a CM5 chip; also called rhG-CSFR; human G-CSF receptor
T1 sequence (looked up): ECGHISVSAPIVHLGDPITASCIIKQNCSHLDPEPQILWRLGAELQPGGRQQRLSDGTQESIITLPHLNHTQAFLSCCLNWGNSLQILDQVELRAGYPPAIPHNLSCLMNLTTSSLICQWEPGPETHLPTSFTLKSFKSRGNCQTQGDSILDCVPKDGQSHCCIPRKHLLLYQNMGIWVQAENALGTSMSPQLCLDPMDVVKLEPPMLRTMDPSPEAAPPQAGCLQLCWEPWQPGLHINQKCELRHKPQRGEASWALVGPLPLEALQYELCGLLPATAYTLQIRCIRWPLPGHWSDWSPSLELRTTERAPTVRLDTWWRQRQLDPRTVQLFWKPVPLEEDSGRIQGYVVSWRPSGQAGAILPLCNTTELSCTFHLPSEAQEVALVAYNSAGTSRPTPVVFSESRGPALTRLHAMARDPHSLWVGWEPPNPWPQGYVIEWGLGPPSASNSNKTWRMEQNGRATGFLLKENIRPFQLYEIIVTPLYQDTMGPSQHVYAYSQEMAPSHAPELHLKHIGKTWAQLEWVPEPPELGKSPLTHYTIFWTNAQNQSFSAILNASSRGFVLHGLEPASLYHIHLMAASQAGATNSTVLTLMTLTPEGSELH
Nature of the experiment: SPR (Biacore), G-CSFR immobilised on the chip, Moevan 2 nM - 32 nM as analyte, five traces with binding model fit [panel D]. A general note: SPR reads the build-up and loss of mass on a sensor chip optically.

Experiment [3] addresses T2, G-CSFR on NFS-60 cells (murine myeloblastic cell line) (mouse, UniProt P40223 26-837).
T2 sequence (looked up): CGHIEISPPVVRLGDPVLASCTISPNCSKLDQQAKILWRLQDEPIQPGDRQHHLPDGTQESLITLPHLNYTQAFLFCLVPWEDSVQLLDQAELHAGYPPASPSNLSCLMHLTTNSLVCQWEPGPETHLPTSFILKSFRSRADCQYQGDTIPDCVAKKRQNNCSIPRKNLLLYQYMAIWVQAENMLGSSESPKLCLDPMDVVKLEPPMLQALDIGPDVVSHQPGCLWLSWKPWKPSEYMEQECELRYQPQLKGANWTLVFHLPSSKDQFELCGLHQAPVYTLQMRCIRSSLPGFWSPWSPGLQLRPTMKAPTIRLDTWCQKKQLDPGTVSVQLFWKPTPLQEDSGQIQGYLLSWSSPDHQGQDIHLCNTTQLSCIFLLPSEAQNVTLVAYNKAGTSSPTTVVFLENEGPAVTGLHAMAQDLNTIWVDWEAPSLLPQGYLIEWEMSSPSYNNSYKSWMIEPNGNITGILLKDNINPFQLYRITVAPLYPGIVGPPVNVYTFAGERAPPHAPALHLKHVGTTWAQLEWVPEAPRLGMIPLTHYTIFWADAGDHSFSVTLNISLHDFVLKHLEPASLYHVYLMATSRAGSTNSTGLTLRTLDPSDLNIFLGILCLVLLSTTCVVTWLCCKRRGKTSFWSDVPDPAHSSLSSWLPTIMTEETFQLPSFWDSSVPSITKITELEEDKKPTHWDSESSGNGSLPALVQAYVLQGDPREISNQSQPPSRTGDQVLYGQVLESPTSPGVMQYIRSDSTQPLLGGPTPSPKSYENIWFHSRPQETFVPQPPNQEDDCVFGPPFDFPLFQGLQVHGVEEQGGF
Nature of the experiment: cell-based or functional assay.

Experiment [4] concerns the target T1, G-CSF Receptor (G-CSFR) (R&D systems …). Nature of the experiment: SPR, Biacore X100 single-cycle kinetics, G-CSFR amine-coupled on CM5, 1:1 binding model. How it is done: To test whether the grafted epitope residues mediate binding of the designs to the G-CSF receptor, the inventors also performed SPR measurements for the Moevan and diSohair2 initial design templates (Moevan_control and diSohair_control, respectively), and no binding was observed (FIG. 20C,F).
(§1) Single-cycle kinetics experiments were performed on a Biacore X100 system (GE Healthcare Life Sciences). G-CSF Receptor (G-CSFR) (R&D systems 381-GR-050/CF) was diluted to 50 μg/ml in 10 mM acetate buffer pH 5.0 and immobilized on the surface of a CM5 sensor chip (GE Healthcare 29149604) using standard amine coupling chemistry. The designs and rhG-CSF (USP RS Filgrastim, Sigma-Aldrich 1270435) were diluted in running buffer (10 mM HEPES, 150 mM NaCl, 3.4 mM EDTA, 0.005% v/v Tween-20). Analyses were conducted at 25° C. at a flow rate of 30 μl/min. Five sequential 10-fold increasing concentrations of the sample solution (for the designs from 0.5 nM to 50 μM, and for rhG-CSF from 0.05 to 500 nM) were injected over the functionalized sensor chip surface for 180 s, followed by a 180 s dissociation with running buffer. At the end of each run, the sensor surface was regenerated with a 240 s injection of 10 mM glycine-HCl pH 2.0. Each experiment was performed two times for rhG-CSF, Boskar3, Boskar4, diSohair2, Moevan, and Moevan_t2. Association rate (ka), dissociation rate (kd), and equilibrium dissociation (Kd) constants were initially obtained by global fitting of the experimental reference-subtracted data to a 1:1 interaction model using the Biacore X100 evaluation software (v.2.0.1). To evaluate if a kinetics model that depends on double the analyte stoichiometry improves the goodness of fit to the data, the following rate integral was used: […]

Experiment [5] shares this target. Nature of the experiment: SPR, second-order reaction model, value as told in the text; second-order reaction model, highest concentration sensorgram. How it is done:
(§2) To obtain a more detailed picture on the nature of the binding, the inventors fitted the highest concentration sensorgram curves using higher order kinetics models. […] While this higher-order interaction model better explains the data than a 1:1 binding model, a clear deviation remained for rhG-CSF sensorgrams.
(§3) Single-cycle kinetics experiments were performed on a Biacore X100 system (GE Healthcare Life Sciences). G-CSF Receptor (G-CSFR) (R&D systems 381-GR-050/CF) was diluted to 50 μg/ml in 10 mM acetate buffer pH 5.0 and immobilized on the surface of a CM5 sensor chip (GE Healthcare 29149604) using standard amine coupling chemistry. The designs and rhG-CSF (USP RS Filgrastim, Sigma-Aldrich 1270435) were diluted in running buffer (10 mM HEPES, 150 mM NaCl, 3.4 mM EDTA, 0.005% v/v Tween-20). Analyses were conducted at 25° C. at a flow rate of 30 μl/min. Five sequential 10-fold increasing concentrations of the sample solution (for the designs from 0.5 nM to 50 μM, and for rhG-CSF from 0.05 to 500 nM) were injected over the functionalized sensor chip surface for 180 s, followed by a 180 s dissociation with running buffer. At the end of each run, the sensor surface was regenerated with a 240 s injection of 10 mM glycine-HCl pH 2.0. Each experiment was performed two times for rhG-CSF, Boskar3, Boskar4, diSohair2, Moevan, and Moevan_t2. Association rate (ka), dissociation rate (kd), and equilibrium dissociation (Kd) constants were initially obtained by global fitting of the experimental reference-subtracted data to a 1:1 interaction model using the Biacore X100 evaluation software (v.2.0.1).

The target is the same in experiment [6]. Nature of the experiment: SPR, Biacore X100, G-CSFR amine-coupled on CM5, 2nd order kinetics model. How it is done: as §1
For experiment [7] the target is unchanged. Nature of the experiment: SPR, Biacore X100, G-CSFR amine-coupled on CM5, 2nd order kinetics model, second run. How it is done:
as §2, §3

Experiment [8] shares this target. Nature of the experiment: SPR, 1:1 binding, value for the two runs together as told in the text; 1:1 binding, injection dilution series. How it is done:
as §2
as §3, with “Association rate (ka), dissociation rate (kd), and equilibrium dissociation (Kd) constants were initially obtained by global fitting of the experimental reference-subtracted data to a 1:1 interaction model using the Biacore X100 evaluation software (v.2.0.1).” left out

Experiment [9] has the same target. Nature of the experiment: SPR, Biacore X100 single-cycle kinetics, G-CSFR amine-coupled on CM5, 1:1 binding model, second run. How it is done: as §1
For experiment [10] the target is unchanged. Nature of the experiment: SPR, Biacore X100 single-cycle kinetics, G-CSFR amine-coupled on CM5, 1:1 binding model. How it is done:
as §1
The source holds these as a separate data set.

In turn, “csf_2d9q|WILD_TYPE G-CSF (from UniProt P09919 37-204) (ligand)” yielded an NFS-60 EC50 (ng/mL), proliferation of NFS-60 cells in [1] of 0.055 ng/mL.

B1: Moevan (designed binder)
chain: MEAAAAARDESAYLKLQEQMRKIDADAAALSETRTIEELDTFKLDVADFVTTVVQLAEELEHRFGRNRRGRTEIYKIVKEVDRKLLDLTDAVLAKEKKGEDILNMVAEIKALLINIYK
notes: also called Movean
Broadly, the Kd is a measure of binding affinity in units of concentration. As a reminder, the koff is a measure of how fast the partners let go of each other. The term kon denotes the second-order rate constant of association. Regarding B1, in experiment [2], the Kd came out at 21.7 nM, the koff is 0.00599 s⁻¹ and the kon amounted to 275000 M⁻¹ s⁻¹. Besides, the “NFS-60 EC50 (ng/mL), proliferation of NFS-60 cells” value (from here on “NFS-60 EC50 (ng/mL), proliferation”) in [3] came to 356 ng/mL. In experiment [4], the Kd was 21 nM, the off-rate constant (koff) came out at 0.0059 s⁻¹ and the kon stood at 290000 M⁻¹ s⁻¹.

B2: Boskar_4 (designed binder)
chain: AALAAALAEIYKGLAEYQARLKSLEGISPELGPALDALRLDMADFATTMAQAMEEGLDSLPQSFLLKALEQIRKIQADAAALREKLAATYKGNDRAAAAVEIAAQLEAFLEKAYQILRHLAAA
B2: the Kd in experiment [5] came to 6100 nM; in experiment [6] it was 6400 nM; in experiment [7], 5800 nM; in experiment [8], 5.1 nM; in [9], 1.7 nM; in experiment [10], 8.5 nM. Also, the koff was 0.0095 s⁻¹ in experiment [6], 0.008 s⁻¹ in [7], 0.0015 s⁻¹ in [9] and 0.0045 s⁻¹ in experiment [10]. Besides, the kon in [6] turned out to be 1500 M⁻¹ s⁻¹; in experiment [7], 1400 M⁻¹ s⁻¹; in experiment [9], 890000 M⁻¹ s⁻¹; in experiment [10], 520000 M⁻¹ s⁻¹. Moreover, the “NFS-60 EC50 (ng/mL), proliferation” value in [3] was found to be 27 ng/mL.

B3: Boskar_3 (designed binder)
chain: AALAAVLAEIYKGLAEYQARLQSLEGISPELGPALDALRLDVADFATTIAQAMEENKGPLPQSFLLKALEQIRKIQADAAALREKLAATYPSSQRAAAAVEIAAQLEAFLEKAYEILRHLAAA
On to B3, for which the Kd in experiment [5] was found to be 4400 nM; in experiment [6], 6000 nM; in [7] it was 2600 nM; in experiment [8], 14 nM; in [9], 16 nM; in [10] it was 12 nM. In addition, the koff came out at 0.0047 s⁻¹ in experiment [6], 0.0058 s⁻¹ in [7], 0.0019 s⁻¹ in experiment [9] and 0.0015 s⁻¹ in experiment [10]. Moreover, the kon stood at 780 M⁻¹ s⁻¹ in experiment [6], 2200 M⁻¹ s⁻¹ in experiment [7], 120000 M⁻¹ s⁻¹ in experiment [9] and 130000 M⁻¹ s⁻¹ in experiment [10]. The “NFS-60 EC50 (ng/mL), proliferation” value in [3] was found to be 768 ng/mL.
